Patent US20040038894A1, “Compounds for modulating cell negative regulations and biological applications thereof” (INSTITUT NATIONAL DE LA SANTE ET DE LA RECHERCHE MEDICALE …, priority 1996, published 2004)
Where a SMILES comes first, the peptide text is derived from it. Where no end group is shown, it is not given here. [ ]: non-standard residue; d: D form. The star is where a group is joined. Biotin = O=C1N[C@H]2[C@H](CS[C@H]2CCCCC(=O)*)N1; pY = N[C@@H](Cc1ccc(OP(=O)(O)O)cc1)C(=O)O

T1: GST-SHP-1.SH2(N + C) (Mus musculus, UniProt P29351)
T1 construct: Using recombinant soluble tandem SH2 domains of SHP-1 and SHP-2; made in house; host or cells: E. coli DH5α
T1 sequence (P29351 1-213 limits assumed): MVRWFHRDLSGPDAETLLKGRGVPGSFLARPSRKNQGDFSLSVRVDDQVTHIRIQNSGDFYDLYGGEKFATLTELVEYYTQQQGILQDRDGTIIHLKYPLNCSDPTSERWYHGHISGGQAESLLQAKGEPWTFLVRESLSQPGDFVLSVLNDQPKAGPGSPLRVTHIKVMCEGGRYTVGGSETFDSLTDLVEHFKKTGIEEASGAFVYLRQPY

T2: GST-SHP-2.SH2(N + C) (Mus musculus, UniProt P35235)
T2 construct: Using recombinant soluble tandem SH2 domains of SHP-1 and SHP-2; made in house; host or cells: E. coli DH5α
T2 sequence (P35235 1-216 limits assumed): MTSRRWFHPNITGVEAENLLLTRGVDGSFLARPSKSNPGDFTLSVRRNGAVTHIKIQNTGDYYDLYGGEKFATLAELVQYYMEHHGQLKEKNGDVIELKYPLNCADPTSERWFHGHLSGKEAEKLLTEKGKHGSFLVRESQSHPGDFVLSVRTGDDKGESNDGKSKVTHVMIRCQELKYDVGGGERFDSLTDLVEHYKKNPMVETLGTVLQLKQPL

T3: SHIP polyinositol phosphatase from RBL-2H3 cell lysates (rat (cell line RBL-2H3), UniProt P97573 1-1190, limits assumed)
T3 construct: Detected by immunoblot with anti-SHIP antiserum
T3 sequence (looked up): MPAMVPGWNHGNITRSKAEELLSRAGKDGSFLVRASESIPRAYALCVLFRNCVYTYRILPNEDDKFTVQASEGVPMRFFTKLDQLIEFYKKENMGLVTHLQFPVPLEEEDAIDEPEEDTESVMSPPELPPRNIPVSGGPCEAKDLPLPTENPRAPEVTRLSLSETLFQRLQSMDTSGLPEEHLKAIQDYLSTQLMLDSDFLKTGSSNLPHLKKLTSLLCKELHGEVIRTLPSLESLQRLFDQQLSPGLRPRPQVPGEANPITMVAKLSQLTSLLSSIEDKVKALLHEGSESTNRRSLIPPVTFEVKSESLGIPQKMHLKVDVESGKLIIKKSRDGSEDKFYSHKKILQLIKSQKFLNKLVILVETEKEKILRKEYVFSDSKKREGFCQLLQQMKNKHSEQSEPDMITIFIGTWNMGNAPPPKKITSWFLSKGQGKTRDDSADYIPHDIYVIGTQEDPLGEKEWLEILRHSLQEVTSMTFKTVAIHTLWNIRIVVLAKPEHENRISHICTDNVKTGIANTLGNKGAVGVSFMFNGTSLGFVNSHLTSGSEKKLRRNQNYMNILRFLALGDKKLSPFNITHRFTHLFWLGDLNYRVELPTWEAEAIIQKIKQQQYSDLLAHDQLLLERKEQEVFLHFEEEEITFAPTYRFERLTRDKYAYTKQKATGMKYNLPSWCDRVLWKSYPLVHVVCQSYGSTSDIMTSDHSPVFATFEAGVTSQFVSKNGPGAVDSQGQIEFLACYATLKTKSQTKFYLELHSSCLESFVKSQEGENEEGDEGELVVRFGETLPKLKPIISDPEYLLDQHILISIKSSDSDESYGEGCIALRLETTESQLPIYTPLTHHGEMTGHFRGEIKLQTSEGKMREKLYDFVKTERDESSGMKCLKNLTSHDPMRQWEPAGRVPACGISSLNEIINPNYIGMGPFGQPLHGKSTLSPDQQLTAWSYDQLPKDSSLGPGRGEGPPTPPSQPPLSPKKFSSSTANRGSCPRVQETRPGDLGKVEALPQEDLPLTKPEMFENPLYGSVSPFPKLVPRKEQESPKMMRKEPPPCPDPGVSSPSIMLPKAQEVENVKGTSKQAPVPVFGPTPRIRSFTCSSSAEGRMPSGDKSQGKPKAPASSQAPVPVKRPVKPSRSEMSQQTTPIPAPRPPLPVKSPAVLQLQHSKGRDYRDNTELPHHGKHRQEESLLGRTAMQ


Legend:
[1] = molecular target: human p58.2 KIR (CD158b), HLA-Cw3-specific killer-cell inhibitory receptor (human) (UniProt P43628); assay: cell-based or functional assay
[2] = molecular target: phosphorylated p58.2.2 peptide (C-terminal KIR ITIM) (human); assay: SPR (BIAcore), phosphopeptide on streptavidin chip, GST fusion injected
[3] = molecular target: phosphorylated p58.2.1 peptide (N-terminal KIR ITIM) (human); assay: as above
GST-SHP-1.SH2(N + C) = molecular target: T1, GST-SHP-1.SH2(N + C); assay: Surface plasmon resonance (BIAcore), SHP-1 tandem SH2 domains; format: binding, murine; settings: for koff / kon: 25 RU phosphorylated peptide immobilized, 5 μl/min
Method: (§1) Surface plasmon resonance measurements were performed on a BIAcore apparatus (BIAcore). The GST-SHP1.SH2(NC), GST-SHP2.SH2(NC) and GST-SHIP.SH2 fusion proteins generated from the murine phosphatase cDNAs, were purified from DH5α lysates as previously described. Before their use in BIAcore experiments, fusion proteins were dialyzed in HBS buffer pH 7.4 (10 mM HEPES, 150 mM NaCl, 3.4 mM EDTA). Protein purity was assessed by 12.5% SDS-PAGE, and Coomassie blue staining. The running buffer used in all BIAcore experiments consisted of HBS buffer supplemented with 0.05% surfactant P20. Equilibrium constant determination (koff and kon) was performed using BIAevaluation 2.0 software. The equilibrium dissociation constants KD were calculated from the koff/kon ratio.
(§2) Results are illustrated by FIG. 16 showing the BIAcore analysis of NKG2A ITIM interaction with the SH2 domains of SHP-1, SHP-2 and SHIP phosphatases. In FIG. 16, the binding of 100 nM soluble recombinant GST-SHP-1.SH2(N+C), GST-SHP-2.SH2(N+C) or GST-SHIP.SH2 to immobilized NKG2A/B phosphorylated ITIM peptides (25 RU) was monitored by real-time analysis using surface plasmon resonance. Results are expressed as corrected resonance units (CRU) corresponding to the raw RU values after subtraction of background RU value due to the injection medium.
(§3) The measurement of phosphorylated peptide binding to GST-SHP-1.SH2(N+C) and GST-SHP-2.SH2(N+C) fusion proteins was performed at a constant 5 μl/min flow rate. In this representative experiment, 25 RU of phosphorylated NKG2A N-term and NKG2A C-term peptides were immobilized on streptavidin microchips. The regeneration was performed using HBS buffer supplemented with 0.03% SDS. Results are expressed as corrected resonance units (CRU) corresponding to the raw RU values after subtraction of background RU value due to the injection medium, koff and kon were calculated from three independent measurements using the BIAevaluation 2.0 software. In addition, kon was calculated as the slope of the curve kg=kon×c−koff, where koff is the off-rate constant and c is the concentration of the soluble recombinant GST fusion proteins. By plotting kg as a function of c, a linear regression fit was obtained (r^2>0.98) for the binding of NKG2A ITIM N- and C-term to SHP-1 and SHP-2 tandem SH2 domains. This linear representation allows to check on the validity of the single step interaction and to confirm the determination of the kon constant using non-linear analysis (BIAevaluation software).

GST-SHP-2.SH2(N + C) = molecular target: T2, GST-SHP-2.SH2(N + C); assay: Surface plasmon resonance (BIAcore), SHP-2 tandem SH2 domains; format: binding, murine; settings: for koff / kon: 25 RU phosphorylated peptide immobilized, 5 μl/min
Method: as §1, §2, §3

[4] = molecular target: T3, SHIP polyinositol phosphatase from …; assay: cell lysate adsorption to peptide beads, immunoblot (RBL-2H3), FIG. 15A
Method: In an attempt to characterize the function of these putative ITIMs, cell lysates were incubated with phosphorylated and nonphosphorylated synthetic peptides corresponding to the N-terminal and the C-terminal I/VxYxxL stretches present in NKG2A intracytoplasmic domain. Cell lysates absorbed to peptides were then assayed by immunoblotting for the presence of the phosphatases known to interact with phosphorylated ITIMs, i.e. the protein tyrosine phosphatases SHP-1 and SHP-2, as well as the polyinositol phosphate phosphatase, SHIP. In parallel, lysates adsorption were performed using control peptides corresponding to ITIMs present in Ig-like ITIM bearing receptors such as human KIRs (p58.2/CD158b, a receptor for HLA-Cw3) and mouse FcγRIIB, as well as in mouse lectin-like ITIM-bearing receptor, such as Ly-49A.
As shown in FIG. 15A (lanes 1 and 2), both N- and C-terminal I/VxYxxL stretches present in NKG2A associate with SHP-1 and SHP-2 in vitro, but no binding to SHIP was detected. Similar patterns of association were obtained using the phosphorylated ITIM peptides of […] and p58.2 KIR (FIG. 15A, lanes 3 to 5). In contrast, FcγRIIB phosphorylated ITIM peptides also associate with SHIP (FIG. 15A, lane 6). No association of phosphatases with nonphosphorylated peptides corresponding to FcγRIIB (FIG. 15A, lane 7) and NKG2A N- and C-terminal I/VxYxxL stretches was detected. When nonphosphorylated and phosphorylated peptides were used to adsorb lysates prepared from ³⁵S methionine/cysteine-labeled cells, only two bands around 64 and 68 kDa selectively associate with both phosphorylated NKG2A N- and C-terminal I/VxYxxL stretches, as compared to nonphosphorylated ones (FIG. 15B). The 64 and 68 kDa proteins which bind to phosphorylated NKG2A peptides correspond to SHP-1 and SHP-2 apparent molecular weight respectively, supporting the immunoblotting results. Therefore, our results define the two NKG2A I/VxYxxL stretches as ITIMs which appear to function similarly to other ITIMs present in inhibitory receptors for MHC class I molecules, i.e. KIRs and Ly-49 molecules. Using recombinant soluble tandem SH2 domains of SHP-1 and SHP-2, we confirmed by surface plasmon resonance that both NKG2A ITIM phosphopeptides directly associate with the SH2 domains of SHP-1 and SHP-2, but not with the SH2 domain of SHIP (FIG. 16).

[5] = calculated from the koff/kon ratio

Chain of phosphorylated p58.2.2 peptide (C-terminal KIR ITIM) (human) (peptide, as listed by the source): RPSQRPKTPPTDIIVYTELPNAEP
Chain of human p58.2 KIR (CD158b), HLA-Cw3-specific killer-cell inhibitory receptor (human) (P43628 22-341): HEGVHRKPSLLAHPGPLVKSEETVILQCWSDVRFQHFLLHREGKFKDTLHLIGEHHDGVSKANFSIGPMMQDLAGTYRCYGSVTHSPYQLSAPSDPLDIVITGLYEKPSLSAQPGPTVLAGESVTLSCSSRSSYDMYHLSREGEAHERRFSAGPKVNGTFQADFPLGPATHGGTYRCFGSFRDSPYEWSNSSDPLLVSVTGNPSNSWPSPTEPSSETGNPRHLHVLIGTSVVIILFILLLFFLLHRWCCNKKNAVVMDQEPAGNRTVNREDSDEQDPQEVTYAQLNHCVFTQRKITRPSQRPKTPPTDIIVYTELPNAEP

Row | Kd [2] [nM] | koff [2] [s⁻¹] | kon [2] [M⁻¹ s⁻¹] | Kd [3] [nM] | koff [3] [s⁻¹] | kon [3] [M⁻¹ s⁻¹] | Molecule | koff (GST-SHP-1.SH2(N + C)) [s⁻¹] | kon (GST-SHP-1.SH2(N + C)) [M⁻¹ s⁻¹] | koff (GST-SHP-2.SH2(N + C)) [s⁻¹] | kon (GST-SHP-2.SH2(N + C)) [M⁻¹ s⁻¹] | also measured
1 | 3160 | 0.025 | 8000 | 423 | 0.042 | 100000 | GST-SHP-1.SH2(N) fusion protein (from UniProt P29351 1-106) |  |  |  |  | 
2 | 545 | 0.0003 | 600 | 137 | 0.0007 | 5000 | GST-SHP-1.SH2(C) fusion protein (from UniProt P29351 107-217) |  |  |  |  | 

More lines, now with the values behind:

Row | Molecule | Kd [2] [nM] | koff [2] [s⁻¹] | kon [2] [M⁻¹ s⁻¹] | Kd [3] [nM] | koff [3] [s⁻¹] | kon [3] [M⁻¹ s⁻¹] | koff (GST-SHP-1.SH2(N + C)) [s⁻¹] | kon (GST-SHP-1.SH2(N + C)) [M⁻¹ s⁻¹] | koff (GST-SHP-2.SH2(N + C)) [s⁻¹] | kon (GST-SHP-2.SH2(N + C)) [M⁻¹ s⁻¹] | also measured
3 | GL183 F(ab')2 |  |  |  |  |  |  |  |  |  |  | inhibition of CD25/CD3 zeta-induced serotonin release, RTIIBp58 B clone (GL183 1 µg/ml, anti-hCD25 3 µg/ml) [1]: 39.3%; inhibition of CD25/CD3 zeta-induced serotonin release, clone with unusually high CD25/CD3 zeta (GL183 F(ab')2 1 µg/ml) [1]: 14.1%; inhibition of FcεRI-induced serotonin release, first RTIIBp58 clone (GL183 1 µg/ml, IgE 10^-3 dilution, GAM) [1]: 72.8%; inhibition of FcεRI-induced serotonin release, second RTIIBp58 clone (GL183 1 µg/ml, IgE 10^-3 dilution, GAM) [1]: 55.8%
4 | CC[C@H](C)[C@H](NC(=O)[C@@H](NC(=O)CNC(=O)[C@H](CCC(N)=O)NC(=O)[C@H](CC(N)=O)NC(=O)[C@H](CC(=O)O)NC(=O)[C@H](CCSC)NC(=O)CCCC[C@@H]1SC[C@@H]2NC(=O)N[C@@H]21)C(C)C)C(=O)N[C@@H](Cc1ccc(OP(=O)(O)O)cc1)C(=O)N[C@@H](CO)C(=O)N[C@@H](CC(=O)O)C(=O)N[C@@H](CC(C)C)C(=O)N[C@@H](CC(N)=O)C(=O)N[C@@H](CC(C)C)C(=O)O [NKG2-A N-terminal ITIM, MDNQGVIY8 SDLNL] (HELM PEPTIDE1{[O=C1N[C@H]2[C@H](CS[C@H]2CCCCC(=O)[*:2])N1].M.D.N.Q.G.V.I.[O=C([C@H](Cc1ccc(OP(=O)(O)O)cc1)N[*:1])[*:2]].S.D.L.N.L}$$$$V2.0) |  |  |  |  |  |  | 0.00189 | 390000 | 0.00142 | 1.03e+06 | Kd (GST-SHP-1.SH2(N + C); [5]): 4.8 nM; Kd (GST-SHP-2.SH2(N + C); [5]): 1.38 nM
5 | CC[C@H](C)[C@H](NC(=O)CCCC[C@@H]1SC[C@@H]2NC(=O)N[C@@H]21)C(=O)N[C@@H](CC(C)C)C(=O)N[C@@H](C)C(=O)N[C@H](C(=O)N[C@@H](CCC(=O)O)C(=O)N[C@@H](CCC(N)=O)C(=O)N[C@@H](CCC(=O)O)C(=O)N[C@H](C(=O)N[C@H](C(=O)N[C@@H](Cc1ccc(OP(=O)(O)O)cc1)C(=O)N[C@@H](C)C(=O)N[C@@H](CCC(=O)O)C(=O)N[C@@H](CC(C)C)C(=O)N[C@@H](CC(N)=O)C(=O)N[C@@H](CC(C)C)C(=O)O)[C@@H](C)O)[C@@H](C)CC)[C@@H](C)O [NKG2-A C-terminal ITIM, ILATEQEIT40 AELNL] (HELM PEPTIDE1{[O=C1N[C@H]2[C@H](CS[C@H]2CCCCC(=O)[*:2])N1].I.L.A.T.E.Q.E.I.T.[O=C([C@H](Cc1ccc(OP(=O)(O)O)cc1)N[*:1])[*:2]].A.E.L.N.L}$$$$V2.0; N-terminus and C-terminus assumed) |  |  |  |  |  |  | 0.00117 | 410000 | 0.00132 | 840000 | 
6 | Biotin-MSEQEVT[pY]SMVRF (also called Ly-19A) [phosphorylated Ly-49A ITIM peptide] |  |  |  |  |  |  |  |  |  |  | binding result [4]: no binding
